Reference: the Human Domainome abundance scans (Beltran et al. 2025)
± gives the uncertainty stated by the source.

B1: 1-phosphatidylinositol 4,5-bisphosphate phosphodiesterase gamma-2, residues 772 to 827; numbered along this chain, P16885 (parent)
chain: RTVKALYDYKAKRSDELSFCRGALIHNVSKEPGGWWKGDYGTRIQQYFPSNYVEDI

Variants of: B1
Assay: abundance fitness (aPCA) (normalised: wild type 0, dead -1); higher = more abundant; growth selection in yeast, the domain comes from the species named
Settings: Homo sapiens

Abundance fitness: each site, then its substitutions
I25: Q -0.921 ± 0.32; R -0.976 ± 0.47; F -0.598 ± 0.3; L -0.386 ± 0.11; S -1 ± 0.34; W -0.723 ± 0.31; A -0.741 ± 0.16; V -0.481 ± 0.078
V3: M -0.017 ± 0.1; C -0.267 ± 0.38; I -0.689 ± 0.26
Y9: H -0.164 ± 0.26; E -0.868 ± 0.31; W -0.223 ± 0.098; T -0.931 ± 0.24; L -0.923 ± 0.19; S -0.939 ± 0.27; V -1.07 ± 0.33; G -0.949 ± 0.11; R -0.685 ± 0.098; C 0.089 ± 0.17; P -0.734 ± 0.3; K -0.816 ± 0.25
C20: N -0.037 ± 0.15; Q -0.143 ± 0.1; H 0.151 ± 0.14; G -0.059 ± 0.057; R 0.11 ± 0.055; I -0.216 ± 0.15; W -0.446 ± 0.1; S 0.008 ± 0.075; M -0.063 ± 0.073; D -0.095 ± 0.1; F -0.17 ± 0.11; P 0.209 ± 0.085; K 0.002 ± 0.11; A 0.004 ± 0.06; L -0.116 ± 0.081; V 0.017 ± 0.051; T -0.012 ± 0.083
A11: V -0.972 ± 0.065; Q -0.176 ± 0.19; S -0.39 ± 0.11; T -0.461 ± 0.092; R -0.683 ± 0.083; W -0.989 ± 0.21; C -0.819 ± 0.11; N -0.378 ± 0.17; P -0.446 ± 0.27; L -1.05 ± 0.14; E -0.775 ± 0.25
D15: T 0.178 ± 0.1; R -0.427 ± 0.1; Y -0.254 ± 0.15; H -0.362 ± 0.33; I -0.027 ± 0.19; M 0.185 ± 0.11; F -0.124 ± 0.14; K -0.503 ± 0.14; L -0.37 ± 0.069; C -0.165 ± 0.16; A -0.182 ± 0.076; S 0.006 ± 0.058; V -0.041 ± 0.042; Q -0.214 ± 0.18; G -0.047 ± 0.078; N -0.048 ± 0.087; P -0.879 ± 0.15; E 0.018 ± 0.067
A5: I -0.903 ± 0.072; L -0.999 ± 0.066; F -0.895 ± 0.07; G -0.868 ± 0.13; P -0.95 ± 0.07; R -0.896 ± 0.089; E -0.908 ± 0.12; Q -0.865 ± 0.15; H -0.976 ± 0.084; K -0.998 ± 0.13; V -0.965 ± 0.12; M -0.942 ± 0.082; W -0.955 ± 0.19; N -0.964 ± 0.099; S -0.503 ± 0.042
L6: V -0.356 ± 0.075; W -0.935 ± 0.47; T -0.161 ± 0.14; D -0.577 ± 0.22; K 0.01 ± 0.1; H -0.834 ± 0.16; E -0.631 ± 0.12; Q -0.485 ± 0.087; R -0.177 ± 0.074; A -0.195 ± 0.055; I 0.09 ± 0.16; N -0.257 ± 0.088; F -0.456 ± 0.35; C -0.406 ± 0.16; G -0.721 ± 0.078; P -0.691 ± 0.18
K10: C -0.034 ± 0.055; T -0.025 ± 0.097; R -0.033 ± 0.079; A -0.319 ± 0.12; L -0.399 ± 0.062; W -0.319 ± 0.054; F -0.333 ± 0.25; I -0.336 ± 0.32; D 0.052 ± 0.1; E -0.104 ± 0.11; N -0.042 ± 0.33; P -0.502 ± 0.12; Q -0.002 ± 0.096; Y -0.106 ± 0.27; M -0.356 ± 0.12; V 0.103 ± 0.082; S -0.008 ± 0.084; G -0.373 ± 0.054
F19: K -0.558 ± 0.42; R -0.966 ± 0.17; D -0.685 ± 0.13; C -0.64 ± 0.34; Q -0.721 ± 0.34; V -0.886 ± 0.1; G -0.604 ± 0.23; P -0.536 ± 0.21; A -0.758 ± 0.14; E -0.711 ± 0.47; L -0.779 ± 0.2
A23: T -0.065 ± 0.09; H -0.471 ± 0.27; Y -0.059 ± 0.15; I -0.613 ± 0.23; S -0.154 ± 0.093; F -0.314 ± 0.23; D 0.096 ± 0.09; K -0.745 ± 0.38; C -0.092 ± 0.16; E -0.052 ± 0.088; W -0.858 ± 0.32; Q -0.595 ± 0.19; R -0.698 ± 0.086; V -0.296 ± 0.083; N -0.131 ± 0.08
R21: N -0.086 ± 0.36; S -0.285 ± 0.14; V -0.122 ± 0.088; L -0.79 ± 0.19; F -0.235 ± 0.19; K -0.247 ± 0.28
D8: R -0.452 ± 0.059; M -0.579 ± 0.13; G -0.083 ± 0.072; V -0.982 ± 0.2; F -0.382 ± 0.24; A 0.068 ± 0.09; T 0.078 ± 0.095; W -0.634 ± 0.18; N -0.059 ± 0.054; E -0.17 ± 0.09; C -0.105 ± 0.074; Y -0.576 ± 0.1; S -0.059 ± 0.076
K4: G -0.782 ± 0.11; I 0.049 ± 0.14; Q -0.148 ± 0.15; C -0.068 ± 0.11; Y 0.019 ± 0.15; W -0.375 ± 0.16; V 0.055 ± 0.07; E -0.216 ± 0.06; D -0.809 ± 0.47; S -0.514 ± 0.13; F -0.393 ± 0.16; T -0.288 ± 0.13; R -0.205 ± 0.053; A -0.259 ± 0.084; M -0.127 ± 0.11
L17: W -0.884 ± 0.36; R -0.945 ± 0.28; I -0.154 ± 0.35; A -0.922 ± 0.28; M 0.012 ± 0.093; Q -0.903 ± 0.11; V -0.41 ± 0.14; G -1 ± 0.44; F -0.492 ± 0.25; T -0.788 ± 0.43; E -0.81 ± 0.42
L24: K -0.215 ± 0.058; R -0.299 ± 0.075; W -0.359 ± 0.12; E -0.083 ± 0.063; Y 0.041 ± 0.13; V -0.046 ± 0.075; G -0.837 ± 0.16; Q -0.267 ± 0.076; M -0.207 ± 0.1; P -0.818 ± 0.072; H -0.335 ± 0.22; D -0.781 ± 0.47; C -0.044 ± 0.099; N -0.212 ± 0.14; T -0.222 ± 0.11; A -0.659 ± 0.12
E16: M -0.633 ± 0.096; H -0.201 ± 0.38; Q -0.168 ± 0.13; T -0.442 ± 0.2; R -0.528 ± 0.097; L -0.486 ± 0.14; G -0.354 ± 0.069; V -0.612 ± 0.074; S -0.618 ± 0.21; A -0.456 ± 0.092; W -1.02 ± 0.47; K -0.822 ± 0.13
Y7: E -0.117 ± 0.093; H -0.015 ± 0.45; N -0.375 ± 0.29; A 0.01 ± 0.066; G -0.35 ± 0.051; I -0.165 ± 0.41; T -0.267 ± 0.1; Q 0.2 ± 0.093; K 0.158 ± 0.078; M -0.059 ± 0.079; F 0.126 ± 0.1; V -0.2 ± 0.065; L -0.077 ± 0.074; C -0.118 ± 0.14; D -0.282 ± 0.31; S -0.109 ± 0.078; R 0.169 ± 0.073
T2: S -0.089 ± 0.085; K -0.207 ± 0.068; Q -0.094 ± 0.11; Y -0.177 ± 0.4; M -0.241 ± 0.15; W -0.883 ± 0.29; I -0.111 ± 0.16; L -0.315 ± 0.1; V 0.037 ± 0.06; H -0.603 ± 0.12; N -0.587 ± 0.15
G22: R -0.775 ± 0.083; E -0.418 ± 0.19; V -0.911 ± 0.24; T -0.872 ± 0.095; S -0.681 ± 0.14; D -0.236 ± 0.086; M -0.52 ± 0.23; W -0.811 ± 0.092; L -1.14 ± 0.32; K -0.203 ± 0.34; C -0.86 ± 0.36; F -0.802 ± 0.21; N -0.364 ± 0.26; P -0.688 ± 0.28; Y -0.856 ± 0.46; H -0.704 ± 0.34
R13: V -0.47 ± 0.13; C -0.212 ± 0.13; S -0.056 ± 0.057; G -0.316 ± 0.083; E -0.306 ± 0.23; K -0.267 ± 0.21; Q -0.301 ± 0.18; F -0.007 ± 0.12; L -0.645 ± 0.12; D -0.281 ± 0.14; W -0.846 ± 0.36; Y -0.1 ± 0.11; T -0.368 ± 0.27; M -0.021 ± 0.081; H -0.26 ± 0.16
S14: K -0.172 ± 0.17; Q 0.037 ± 0.075; T -0.291 ± 0.13; G -0.007 ± 0.068; H -0.107 ± 0.18; P -0.439 ± 0.21; F 0.024 ± 0.16; N -0.316 ± 0.21; R 0.026 ± 0.056; W -0.334 ± 0.09; L -0.167 ± 0.072; C -0.124 ± 0.14; I 0.031 ± 0.14; Y -0.304 ± 0.19; M 0.024 ± 0.06; V -0.16 ± 0.064; D -0.053 ± 0.11; A 0.038 ± 0.078; E -0.206 ± 0.095
S18: F -0.927 ± 0.094; E 0.018 ± 0.11; C -0.512 ± 0.5; R -0.936 ± 0.12; D -0.201 ± 0.21; A -0.862 ± 0.22; N -0.619 ± 0.15; L -0.987 ± 0.32; V -0.914 ± 0.24; G -0.679 ± 0.15; T -0.187 ± 0.25; P -0.907 ± 0.16
K12: M -0.004 ± 0.068; W -0.369 ± 0.24; Y -0.48 ± 0.12; S -0.263 ± 0.068; L -0.177 ± 0.067; P -0.93 ± 0.18; G -0.182 ± 0.063; D -0.239 ± 0.1; V -0.217 ± 0.086; R -0.092 ± 0.068; H 0.113 ± 0.13; F -0.63 ± 0.15; N -0.181 ± 0.1; E -0.206 ± 0.18; A -0.16 ± 0.078; T -0.097 ± 0.052; Q -0.077 ± 0.052; I -0.405 ± 0.13; C -0.705 ± 0.15
H26: K -0.221 ± 0.14; F 0.012 ± 0.14; E -0.002 ± 0.087; I -0.084 ± 0.13; C -0.087 ± 0.12; A -0.113 ± 0.044; D -0.173 ± 0.12; G -0.43 ± 0.093
